Results taken from publication PMC8931054, “Structure-guided unlocking of NaX reveals a non-selective tetrodotoxin-sensitive cation channel” (Nature Communications, 2022).

Biological target: T1, human NaX channel (human, UniProt Q01118 1-1682)
T1 construct: Full-length human NaX (sodium channel protein type 7 subunit alpha, gene SCN7A), cloned into a pRK vector behind a CMV promoter; Co-expressed and co-purified with untagged β3; No removal of the tags is described; also called SCN7A; source: Expi293 cells, co-transfected with β3, purified (anti-FLAG M2 agarose, Strep-Tactin XT, Superose 6); not shown: 2xStrepII, N-terminal, kept; 2xFLAG, …
Test: cryo-EM structure; β3-NaX complex co-expressed in Expi293, purified in GDN by the tags on NaX, reconstituted into POPC:POPE:POPG nanodiscs (MSP1E3D1); 25 mM HEPES pH 7.0, 200 mM NaCl; cross-linked with 0.05% glutaraldehyde before vitrification
Settings: both partners purified

T1 sequence (Q01118 whole entry): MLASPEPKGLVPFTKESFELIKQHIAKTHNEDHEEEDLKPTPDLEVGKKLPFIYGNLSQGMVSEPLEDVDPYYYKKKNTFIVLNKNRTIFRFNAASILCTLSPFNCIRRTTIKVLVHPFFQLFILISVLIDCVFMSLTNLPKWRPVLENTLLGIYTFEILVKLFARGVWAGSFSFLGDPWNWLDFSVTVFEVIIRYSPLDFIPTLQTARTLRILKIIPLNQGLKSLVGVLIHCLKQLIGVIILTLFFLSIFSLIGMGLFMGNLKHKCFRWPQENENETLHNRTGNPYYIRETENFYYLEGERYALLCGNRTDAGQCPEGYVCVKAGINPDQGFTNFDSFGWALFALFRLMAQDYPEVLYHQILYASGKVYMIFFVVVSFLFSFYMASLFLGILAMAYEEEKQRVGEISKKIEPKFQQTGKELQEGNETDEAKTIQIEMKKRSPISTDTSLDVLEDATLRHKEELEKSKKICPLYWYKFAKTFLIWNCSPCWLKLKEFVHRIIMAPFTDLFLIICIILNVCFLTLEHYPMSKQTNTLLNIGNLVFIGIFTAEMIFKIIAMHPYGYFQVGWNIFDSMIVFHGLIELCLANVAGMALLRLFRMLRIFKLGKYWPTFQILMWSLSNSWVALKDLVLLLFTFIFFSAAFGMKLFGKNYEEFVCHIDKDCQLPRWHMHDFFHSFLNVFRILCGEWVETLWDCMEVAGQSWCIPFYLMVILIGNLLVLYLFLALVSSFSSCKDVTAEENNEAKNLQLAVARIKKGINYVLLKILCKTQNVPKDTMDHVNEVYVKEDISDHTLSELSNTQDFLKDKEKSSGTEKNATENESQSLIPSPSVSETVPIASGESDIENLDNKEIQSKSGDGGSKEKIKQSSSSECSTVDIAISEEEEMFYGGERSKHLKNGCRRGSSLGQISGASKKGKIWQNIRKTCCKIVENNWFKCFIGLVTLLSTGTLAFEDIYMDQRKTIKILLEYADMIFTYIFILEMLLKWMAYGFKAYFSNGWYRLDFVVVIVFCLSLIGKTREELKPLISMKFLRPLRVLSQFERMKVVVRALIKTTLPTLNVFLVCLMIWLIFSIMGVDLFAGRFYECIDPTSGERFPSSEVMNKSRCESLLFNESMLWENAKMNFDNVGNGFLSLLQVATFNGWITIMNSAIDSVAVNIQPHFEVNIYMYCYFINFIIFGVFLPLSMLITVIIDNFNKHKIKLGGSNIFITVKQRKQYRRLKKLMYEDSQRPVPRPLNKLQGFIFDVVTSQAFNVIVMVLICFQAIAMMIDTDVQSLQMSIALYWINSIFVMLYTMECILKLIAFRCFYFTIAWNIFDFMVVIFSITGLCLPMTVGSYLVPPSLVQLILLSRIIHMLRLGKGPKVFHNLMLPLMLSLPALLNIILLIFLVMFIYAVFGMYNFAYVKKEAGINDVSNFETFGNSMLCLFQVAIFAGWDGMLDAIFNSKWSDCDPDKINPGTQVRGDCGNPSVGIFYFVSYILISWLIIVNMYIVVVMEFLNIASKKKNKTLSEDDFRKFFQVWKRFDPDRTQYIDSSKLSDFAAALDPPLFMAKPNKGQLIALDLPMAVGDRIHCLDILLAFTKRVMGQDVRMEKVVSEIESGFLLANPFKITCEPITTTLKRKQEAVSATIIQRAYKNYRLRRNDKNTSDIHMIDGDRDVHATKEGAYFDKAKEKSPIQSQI

B1: human β3-subunit (auxiliary NaV channel β3) (natural protein, UniProt Q9NY72 23-215, looked up)
chain: FPVCVEVPSETEAVQGNPMKLRCISCMKREEVEATTVVEWFYRPEGGKDFLIYEYRNGHQEVESPFQGRLQWNGSKDLQDVSITVLNVTLNDSGLYTCNVSREFEFEAHRPFVKTTRLIPLRVTEEAGEDFTSVVSEIMMYILLVFLTLWLLIEMIYCYRKVSKAEEAAQENASDYLAIPSENKENSAVPVEE
notes: Untagged full-length human sodium channel auxiliary β3-subunit, cloned into a pRK vector behind a CMV promoter; The full-length cDNA was expressed; also called NaVβ3; source: Expi293 cells, co-transfected with NaX, co-purified with tagged NaX
binding result: binds
